Experimental data as given in patent US20030207791A1, “Materials and methods relating to the treatment of leukaemias” (priority 2000, published 2003).

Columns and labels:
[1] = biological target: nuclear corepressor (NCoR) (UniProt O75376); experiment: cell-based or functional assay
PML-RAR = PML-RAR (UniProt P29590); experiment: cell-based or functional assay
Sequence of PML-RAR (UniProt P29590) (P29590 other isoform, or with tags, fused parts or gaps limits assumed): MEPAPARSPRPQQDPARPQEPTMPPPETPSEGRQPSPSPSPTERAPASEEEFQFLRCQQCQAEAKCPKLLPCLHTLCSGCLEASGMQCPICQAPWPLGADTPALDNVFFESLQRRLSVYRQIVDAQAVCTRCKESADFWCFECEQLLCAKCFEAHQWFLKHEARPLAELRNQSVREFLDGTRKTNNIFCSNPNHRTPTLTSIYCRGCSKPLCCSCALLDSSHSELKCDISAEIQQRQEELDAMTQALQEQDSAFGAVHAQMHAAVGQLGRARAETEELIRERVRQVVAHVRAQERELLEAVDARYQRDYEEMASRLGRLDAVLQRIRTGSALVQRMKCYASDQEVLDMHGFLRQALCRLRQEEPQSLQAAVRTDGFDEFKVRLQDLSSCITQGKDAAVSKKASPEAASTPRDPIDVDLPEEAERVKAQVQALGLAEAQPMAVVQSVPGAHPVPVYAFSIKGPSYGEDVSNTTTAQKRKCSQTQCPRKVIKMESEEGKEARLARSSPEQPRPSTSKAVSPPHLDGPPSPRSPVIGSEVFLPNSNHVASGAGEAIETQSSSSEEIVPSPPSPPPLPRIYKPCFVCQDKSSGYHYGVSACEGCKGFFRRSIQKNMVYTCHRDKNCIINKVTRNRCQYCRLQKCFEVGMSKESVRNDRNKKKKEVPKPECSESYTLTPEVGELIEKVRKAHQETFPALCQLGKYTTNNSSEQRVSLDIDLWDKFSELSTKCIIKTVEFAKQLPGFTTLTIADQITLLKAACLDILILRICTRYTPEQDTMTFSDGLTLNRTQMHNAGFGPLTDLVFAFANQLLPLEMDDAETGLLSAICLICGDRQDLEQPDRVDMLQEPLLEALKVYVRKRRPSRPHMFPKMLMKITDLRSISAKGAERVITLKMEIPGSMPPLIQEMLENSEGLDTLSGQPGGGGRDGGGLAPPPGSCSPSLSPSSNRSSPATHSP

Sequence of PML-RAR (from UniProt P29590 1-552; P10276 61-462) (P29590 other isoform, or with tags, fused parts or gaps limits assumed): as above
Sequence of nuclear corepressor (NCoR) (O75376 whole entry): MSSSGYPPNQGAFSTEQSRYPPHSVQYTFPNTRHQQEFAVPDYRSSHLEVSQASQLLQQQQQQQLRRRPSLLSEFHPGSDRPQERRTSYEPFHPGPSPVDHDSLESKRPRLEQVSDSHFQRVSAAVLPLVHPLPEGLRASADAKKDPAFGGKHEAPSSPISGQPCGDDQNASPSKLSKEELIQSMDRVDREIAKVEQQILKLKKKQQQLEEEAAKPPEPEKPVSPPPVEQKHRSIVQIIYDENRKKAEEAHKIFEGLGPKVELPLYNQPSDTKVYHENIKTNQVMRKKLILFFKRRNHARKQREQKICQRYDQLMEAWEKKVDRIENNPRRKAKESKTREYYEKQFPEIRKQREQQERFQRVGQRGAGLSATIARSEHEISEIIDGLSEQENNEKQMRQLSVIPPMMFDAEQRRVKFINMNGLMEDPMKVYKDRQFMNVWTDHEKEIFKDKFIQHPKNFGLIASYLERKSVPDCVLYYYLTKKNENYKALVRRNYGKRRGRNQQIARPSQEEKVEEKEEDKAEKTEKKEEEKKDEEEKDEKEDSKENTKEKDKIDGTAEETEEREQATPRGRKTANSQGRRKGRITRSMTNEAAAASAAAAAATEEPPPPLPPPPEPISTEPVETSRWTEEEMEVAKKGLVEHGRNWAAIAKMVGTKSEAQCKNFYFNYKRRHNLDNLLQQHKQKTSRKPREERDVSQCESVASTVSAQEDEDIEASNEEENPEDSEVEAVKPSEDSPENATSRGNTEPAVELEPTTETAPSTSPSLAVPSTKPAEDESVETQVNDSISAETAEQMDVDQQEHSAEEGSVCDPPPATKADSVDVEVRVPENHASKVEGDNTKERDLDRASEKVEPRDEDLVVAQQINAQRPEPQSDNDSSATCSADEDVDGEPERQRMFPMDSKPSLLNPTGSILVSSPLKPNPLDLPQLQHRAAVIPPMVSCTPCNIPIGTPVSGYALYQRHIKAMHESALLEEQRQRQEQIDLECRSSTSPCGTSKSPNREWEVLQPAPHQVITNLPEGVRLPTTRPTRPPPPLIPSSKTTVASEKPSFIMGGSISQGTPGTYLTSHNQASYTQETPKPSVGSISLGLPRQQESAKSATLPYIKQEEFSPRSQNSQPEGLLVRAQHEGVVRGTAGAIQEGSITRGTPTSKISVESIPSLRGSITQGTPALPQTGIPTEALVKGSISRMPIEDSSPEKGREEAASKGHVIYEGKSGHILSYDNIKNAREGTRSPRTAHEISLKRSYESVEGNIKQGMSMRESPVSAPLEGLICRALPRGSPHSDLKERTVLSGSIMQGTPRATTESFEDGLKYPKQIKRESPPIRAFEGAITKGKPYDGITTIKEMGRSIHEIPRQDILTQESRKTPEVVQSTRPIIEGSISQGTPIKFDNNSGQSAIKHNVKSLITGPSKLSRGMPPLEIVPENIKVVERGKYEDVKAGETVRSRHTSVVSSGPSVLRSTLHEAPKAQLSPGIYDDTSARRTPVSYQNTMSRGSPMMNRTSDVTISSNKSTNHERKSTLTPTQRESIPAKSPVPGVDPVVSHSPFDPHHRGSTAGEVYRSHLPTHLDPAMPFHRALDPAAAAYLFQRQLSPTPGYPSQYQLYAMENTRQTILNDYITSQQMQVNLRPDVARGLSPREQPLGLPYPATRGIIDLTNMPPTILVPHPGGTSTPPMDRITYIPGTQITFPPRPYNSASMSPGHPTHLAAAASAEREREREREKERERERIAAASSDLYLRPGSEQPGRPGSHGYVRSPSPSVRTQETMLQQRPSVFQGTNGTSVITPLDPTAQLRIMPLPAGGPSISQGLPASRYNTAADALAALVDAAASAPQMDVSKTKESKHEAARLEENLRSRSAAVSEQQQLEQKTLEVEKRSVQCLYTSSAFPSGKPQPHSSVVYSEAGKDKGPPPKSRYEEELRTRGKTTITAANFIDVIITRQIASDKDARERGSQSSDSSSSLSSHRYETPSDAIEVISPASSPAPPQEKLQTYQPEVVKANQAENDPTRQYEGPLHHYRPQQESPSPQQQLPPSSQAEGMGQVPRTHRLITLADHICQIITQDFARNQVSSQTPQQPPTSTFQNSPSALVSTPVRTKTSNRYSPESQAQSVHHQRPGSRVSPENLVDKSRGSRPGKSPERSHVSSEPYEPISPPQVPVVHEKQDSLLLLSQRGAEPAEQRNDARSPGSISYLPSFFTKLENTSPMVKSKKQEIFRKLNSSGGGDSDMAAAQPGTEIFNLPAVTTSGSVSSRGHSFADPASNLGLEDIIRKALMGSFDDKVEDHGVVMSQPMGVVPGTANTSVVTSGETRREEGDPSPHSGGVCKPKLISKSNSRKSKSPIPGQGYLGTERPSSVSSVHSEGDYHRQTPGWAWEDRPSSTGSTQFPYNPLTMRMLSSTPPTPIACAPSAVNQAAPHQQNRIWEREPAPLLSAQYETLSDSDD

PML-RAR (from UniProt P29590 1-552; P10276 61-462)
transcriptional repression of GAL4-VP16 activation of the RARE-G5-TATA reporter in HeLa cells, 50 ng expression vector [1]: 30 to 40%

coiled coil of PML (RBCC) (from UniProt P29590 1-360)
percentage of differentiated, CD14+ U937 cells after vitamin D and TGFβ, PML-RAR induced (% CD14+ cells) (PML-RAR): 70
